According to patent publication US7976843B2, “Method for screening peptides for use in immunotherapy” (Institut National de la Santa et de la Recherche Medicale …, priority 2000, dated 2011):

Biological target: HLA A2.1 molecule (Homo sapiens, UniProt P04439, D140Y/D185E/D98H/E176V/E277Q/G131W/G231S/I119V/I121R/I166T/I218V/L300P/L318F/N151K/N90K/P208A/P217A/Q86G/Q94H/R138H/R169H/T345S)
Assay: Stability of the peptide/HLA A2.1 complex (DC50) on T2 cells, flow cytometry
Type: binding
Conditions: […]; arrow in neighbouring cell gives direction
Protocol: For each incubation time, the cells are then labeled, as indicated above, with the BB7.2 antibody, and analyzed by flow cytometry in order to evaluate the amount of peptide/HLA A2.1 complex present at their surface. […] The DC50 (dissociation complex: DC) is defined as being the time required for the loss of 50% of the HLA A2.1/peptide complexes stabilized at t=0.

## GILGPVFTL [Flu M58, reference compound]
  DC50 Y1-DC50 WT: =0 hours
